This note sets out measurements from patent US9976134B2, “Thermolysin variants” (Danisco US Inc., priority 2007, dated 2018).

The conditions of series [1]: TIDE 2X 0.78 g/l, 6 gpg, pH 8.2, 30 min at 20°C, A405; variant vs wild-type thermolysin at same protein concentration. How it is done: Thermolysin containing protease samples were obtained from filtered broth of cultures grown in microtiter plates for 3 days at 37° C. with shaking at 280 rpm under humidified aeration.
• Thermolysin containing culture supernatants (˜100-200 μg protein per ml) • TIDE® 2× (nil enzymes) detergent (P&G) • Dilution Buffer (10 mM NaCl, 0.1 mM CaCl2, 0.005% TWEEN®-80) The equipment used was a Biomek FX Robot (Beckman Coulter), a SpectraMAX MTP Reader (type 340; Molecular Devices), and an iEMS incubator/shaker (Thermo/Labsystems). MTPs were obtained from Costar (type 9017). TIDE® 2× Liquid Detergent Preparation (US Conditions):
Milli-Q water was adjusted to 6 gpg water hardness using a (Ca/Mg 3:1) hardness stock solution (282.3 g/L CaCl2.2H20, 130.1 g/L MgCl2.6H2O), 0.78 g/1 detergent TIDE® 2× was added, and the detergent solution was stirred vigorously for at least 15 minutes. Then, 5 mM HEPES was added and the pH adjusted to 8.2.
Microswatches of ¼ inch circular diameter were obtained from CFT (Vlaardingen, The Netherlands).
Two microswatches were placed vertically into each well of a 96-well microtiter plate to expose the whole surface area (i.e., not flat on the bottom of the well).
The incubator was set to 20° C. The filtered culture broth samples were tested at an appropriate concentration by dilution with a mixture of 10 mM NaCl, 0.1 mM CaCl2, 0.005% TWEEN®-80 solution. The detergent solution was prepared as described above. Then, 190 μl of detergent solution were added to each well of the MTP, containing microswatches. To this mixture, 10 μl of diluted enzyme solution were added to each well (to provide a total volume of 200 μl/well). The MTP was covered with a plate seal and placed in an incubator for 30 minutes at 20° C., with agitation at 1400 rpm (iEMS incubator). Following incubation under the appropriate conditions, 100 μl of solution from each well was removed and placed into a new MTP. Subsequently this MTP, containing 100 μl of solution/well, was read at 405 nm in a MTP-Reader. Blank controls, containing 2 microswatches/well and detergent, without the addition of thermolysin containing samples, were also included in the test.
The observed absorbance value was corrected for the blank value (obtained after incubation of microswatches in the absence of added enzyme). The resulting absorbance was a measure for the hydrolytic activity. For each sample (thermolysin or a variant) the performance index (PI) was calculated. The performance index is a comparison of the performance of the variant (actual value) and the standard thermolysin enzyme (theoretical value) at the same protein concentration. In addition, the theoretical values were calculated, using the parameters of the Langmuir equation of the standard enzyme.
C. Stability Assay in the Presence of Detergent
In this example, experiments were conducted to determine the stain removal performance of various singly substituted thermolysin (also referred to herein as Proteinase-T or PrT) variants. As described in Example 1, the stain cleaning performance of thermolysin variants was done utilizing a blood/milk/ink (BMI) microswatch assay. Briefly the cleaning performance of chosen single-substitution thermolysin variants was assessed in a TIDE® 2× microswatch assay.

Series [2] in a line: Stability assay in 25% TIDE 2X detergent with DTPA (residual Abz-AGLA-Nba protease activity). The format is physicochemical. Particulars: 60 min at 32°C; variant residual AGLA activity divided by wild-type residual activity. An outline of the steps:
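Thermolysin variant culture supernatants stressed in TIDE 2× detergent, with or without DTPA: 60 min at 32° C or 180 min at 50° C. Residual versus unstressed activity on Abz-AGLA-Nba read kinetically at 25° C (Ex 350/Em 420). Performance index is variant residual activity divided by wild-type thermolysin residual activity.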

B1: Y151H: single-substitution thermolysin variant (SEQ ID NO:3 numbering) (protein, listed as Geobacillus caldoproteolyticus)
chain: ITGTSTVGVGRGVLGDQKNINTTYSTYYYLQDNTRGNGIFTYDAKYRTTLPGSLWADADNQFFASYDAPAVDAHYYAGVTYDYYKNVHNRLSYDGNNAAIRSSVHYSQGYNNAFWNGSQMVYGDGDGQTFIPLSGGIDVVAHELTHAVTDHTAGLIYQNESGAINEAISDIFGTLVEFYANKNPDWEIGEDVYTPGISGDSLRSMSDPAKYGDPDHYSKRYTGTQDNGGVHINSGIINKAAYLISQGGTHYGVSVVGIGRDKLGKIFYRALTQYLTPTSNFSQLRAAAVQSATDLYGSTSQEVASVKQAFDAVGVK
Consider B1, for which, in series [1], the “PI (performance index), stain removal” value is listed as 1.17. Further, the “PI (relative stability), 25% TIDE 2X with DTPA” value in series [2] was 1.11.

B2: Y151Q: single-substitution thermolysin variant (SEQ ID NO:3 numbering) (protein, listed as Geobacillus caldoproteolyticus)
chain: ITGTSTVGVGRGVLGDQKNINTTYSTYYYLQDNTRGNGIFTYDAKYRTTLPGSLWADADNQFFASYDAPAVDAHYYAGVTYDYYKNVHNRLSYDGNNAAIRSSVHYSQGYNNAFWNGSQMVYGDGDGQTFIPLSGGIDVVAHELTHAVTDQTAGLIYQNESGAINEAISDIFGTLVEFYANKNPDWEIGEDVYTPGISGDSLRSMSDPAKYGDPDHYSKRYTGTQDNGGVHINSGIINKAAYLISQGGTHYGVSVVGIGRDKLGKIFYRALTQYLTPTSNFSQLRAAAVQSATDLYGSTSQEVASVKQAFDAVGVK
Consider B2, for which, in series [1], the “PI (performance index), stain removal” value is 1.29. Also, the “PI (relative stability), 25% TIDE 2X with DTPA” value in series [2] is given as 1.03.

B3: Y151M: single-substitution thermolysin variant (SEQ ID NO:3 numbering) (protein, listed as Geobacillus caldoproteolyticus)
chain: ITGTSTVGVGRGVLGDQKNINTTYSTYYYLQDNTRGNGIFTYDAKYRTTLPGSLWADADNQFFASYDAPAVDAHYYAGVTYDYYKNVHNRLSYDGNNAAIRSSVHYSQGYNNAFWNGSQMVYGDGDGQTFIPLSGGIDVVAHELTHAVTDMTAGLIYQNESGAINEAISDIFGTLVEFYANKNPDWEIGEDVYTPGISGDSLRSMSDPAKYGDPDHYSKRYTGTQDNGGVHINSGIINKAAYLISQGGTHYGVSVVGIGRDKLGKIFYRALTQYLTPTSNFSQLRAAAVQSATDLYGSTSQEVASVKQAFDAVGVK
Regarding B3, in series [1], the “PI (performance index), stain removal” value was found to be 1.06. Moreover, the “PI (relative stability), 25% TIDE 2X with DTPA” value in series [2] came to 1.09.

B4: Y151V: single-substitution thermolysin variant (SEQ ID NO:3 numbering) (protein, listed as Geobacillus caldoproteolyticus)
chain: ITGTSTVGVGRGVLGDQKNINTTYSTYYYLQDNTRGNGIFTYDAKYRTTLPGSLWADADNQFFASYDAPAVDAHYYAGVTYDYYKNVHNRLSYDGNNAAIRSSVHYSQGYNNAFWNGSQMVYGDGDGQTFIPLSGGIDVVAHELTHAVTDVTAGLIYQNESGAINEAISDIFGTLVEFYANKNPDWEIGEDVYTPGISGDSLRSMSDPAKYGDPDHYSKRYTGTQDNGGVHINSGIINKAAYLISQGGTHYGVSVVGIGRDKLGKIFYRALTQYLTPTSNFSQLRAAAVQSATDLYGSTSQEVASVKQAFDAVGVK
Regarding B4, the “PI (performance index), stain removal” value in series [1] is 1.25. Besides, the “PI (relative stability), 25% TIDE 2X with DTPA” value in series [2] came out at 1.11.

B5: T049I: single-substitution thermolysin variant (SEQ ID NO:3 numbering) (protein, listed as Geobacillus caldoproteolyticus)
chain: ITGTSTVGVGRGVLGDQKNINTTYSTYYYLQDNTRGNGIFTYDAKYRTILPGSLWADADNQFFASYDAPAVDAHYYAGVTYDYYKNVHNRLSYDGNNAAIRSSVHYSQGYNNAFWNGSQMVYGDGDGQTFIPLSGGIDVVAHELTHAVTDYTAGLIYQNESGAINEAISDIFGTLVEFYANKNPDWEIGEDVYTPGISGDSLRSMSDPAKYGDPDHYSKRYTGTQDNGGVHINSGIINKAAYLISQGGTHYGVSVVGIGRDKLGKIFYRALTQYLTPTSNFSQLRAAAVQSATDLYGSTSQEVASVKQAFDAVGVK
Consider B5, for which the “PI (performance index), stain removal” value in series [1] is 1.24. Further, the “PI (relative stability), 25% TIDE 2X with DTPA” value in series [2] is 1.01.

B6: I156R: single-substitution thermolysin variant (SEQ ID NO:3 numbering) (protein, listed as Geobacillus caldoproteolyticus)
chain: ITGTSTVGVGRGVLGDQKNINTTYSTYYYLQDNTRGNGIFTYDAKYRTTLPGSLWADADNQFFASYDAPAVDAHYYAGVTYDYYKNVHNRLSYDGNNAAIRSSVHYSQGYNNAFWNGSQMVYGDGDGQTFIPLSGGIDVVAHELTHAVTDYTAGLRYQNESGAINEAISDIFGTLVEFYANKNPDWEIGEDVYTPGISGDSLRSMSDPAKYGDPDHYSKRYTGTQDNGGVHINSGIINKAAYLISQGGTHYGVSVVGIGRDKLGKIFYRALTQYLTPTSNFSQLRAAAVQSATDLYGSTSQEVASVKQAFDAVGVK
As to B6, the “PI (performance index), stain removal” value in series [1] is reported as 1.22. Also, in series [2], the “PI (relative stability), 25% TIDE 2X with DTPA” value is 1.15.

B7: Y151R: single-substitution thermolysin variant (SEQ ID NO:3 numbering) (protein, listed as Geobacillus caldoproteolyticus)
chain: ITGTSTVGVGRGVLGDQKNINTTYSTYYYLQDNTRGNGIFTYDAKYRTTLPGSLWADADNQFFASYDAPAVDAHYYAGVTYDYYKNVHNRLSYDGNNAAIRSSVHYSQGYNNAFWNGSQMVYGDGDGQTFIPLSGGIDVVAHELTHAVTDRTAGLIYQNESGAINEAISDIFGTLVEFYANKNPDWEIGEDVYTPGISGDSLRSMSDPAKYGDPDHYSKRYTGTQDNGGVHINSGIINKAAYLISQGGTHYGVSVVGIGRDKLGKIFYRALTQYLTPTSNFSQLRAAAVQSATDLYGSTSQEVASVKQAFDAVGVK
For B7, the “PI (performance index), stain removal” value in series [1] is 1.75. The “PI (relative stability), 25% TIDE 2X with DTPA” value in series [2] is 1.26.

B8: I156M: single-substitution thermolysin variant (SEQ ID NO:3 numbering) (protein, listed as Geobacillus caldoproteolyticus)
chain: ITGTSTVGVGRGVLGDQKNINTTYSTYYYLQDNTRGNGIFTYDAKYRTTLPGSLWADADNQFFASYDAPAVDAHYYAGVTYDYYKNVHNRLSYDGNNAAIRSSVHYSQGYNNAFWNGSQMVYGDGDGQTFIPLSGGIDVVAHELTHAVTDYTAGLMYQNESGAINEAISDIFGTLVEFYANKNPDWEIGEDVYTPGISGDSLRSMSDPAKYGDPDHYSKRYTGTQDNGGVHINSGIINKAAYLISQGGTHYGVSVVGIGRDKLGKIFYRALTQYLTPTSNFSQLRAAAVQSATDLYGSTSQEVASVKQAFDAVGVK
As to B8, in series [1], the “PI (performance index), stain removal” value was determined as 1.11. Besides, the “PI (relative stability), 25% TIDE 2X with DTPA” value in series [2] is given as 1.19.

B9: Y151W: single-substitution thermolysin variant (SEQ ID NO:3 numbering) (protein, listed as Geobacillus caldoproteolyticus)
chain: ITGTSTVGVGRGVLGDQKNINTTYSTYYYLQDNTRGNGIFTYDAKYRTTLPGSLWADADNQFFASYDAPAVDAHYYAGVTYDYYKNVHNRLSYDGNNAAIRSSVHYSQGYNNAFWNGSQMVYGDGDGQTFIPLSGGIDVVAHELTHAVTDWTAGLIYQNESGAINEAISDIFGTLVEFYANKNPDWEIGEDVYTPGISGDSLRSMSDPAKYGDPDHYSKRYTGTQDNGGVHINSGIINKAAYLISQGGTHYGVSVVGIGRDKLGKIFYRALTQYLTPTSNFSQLRAAAVQSATDLYGSTSQEVASVKQAFDAVGVK
B9: the “PI (performance index), stain removal” value in series [1] is 1.22. In addition, the “PI (relative stability), 25% TIDE 2X with DTPA” value in series [2] turned out to be 1.02.
